Target: human PACRG full-length short isoform (PACRG^FL, 257 a.a.) (human, UniProt Q96M98-2 1-257)
Experiment: cross-linking

B1: human MEIG1 (His6 tag cleaved) (natural protein)
chain: MASSDVKPKSVSHAKKWSEEIENLYRFQQAGYRDETEYRQVKQVSMVDRWPETGYVKKLQRRDNTFYYYNKQRECDDKEVHKVKIYAY
B1: binds.
